Legend:
[1] = target: T1, At1g12140 (Arabidopsis thaliana, UniProt A8MRX0); assay: Heterologous expression of At1g12140 in E. coli, desulfo-glucosinolate substrate mix; type: biochemical; conditions: desulfo-glucosinolates from Arabidopsis Col-0 seeds as substrate mix
T1 construct: made in house; host or cells: E. coli
T1 sequence (A8MRX0 1-459): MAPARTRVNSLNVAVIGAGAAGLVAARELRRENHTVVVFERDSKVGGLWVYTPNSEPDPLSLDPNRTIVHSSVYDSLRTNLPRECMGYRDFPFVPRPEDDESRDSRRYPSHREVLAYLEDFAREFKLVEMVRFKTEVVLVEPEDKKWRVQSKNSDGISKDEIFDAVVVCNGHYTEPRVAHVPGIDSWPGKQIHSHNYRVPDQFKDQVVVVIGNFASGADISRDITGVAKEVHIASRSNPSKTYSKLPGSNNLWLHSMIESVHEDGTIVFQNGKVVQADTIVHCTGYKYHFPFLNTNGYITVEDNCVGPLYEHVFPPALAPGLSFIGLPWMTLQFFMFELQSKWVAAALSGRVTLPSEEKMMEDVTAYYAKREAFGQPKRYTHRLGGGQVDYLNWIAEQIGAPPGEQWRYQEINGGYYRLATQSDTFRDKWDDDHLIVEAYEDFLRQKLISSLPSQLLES
Excerpt: (§1) FIG. 15—Heterologous expression of At1g12140 in E. coli using desulfo-glucosinolates from glucosinolates from Arabidopsis Col-0 seeds as substrate mix.

[2] = Activity of FMOs of the invention in E. coli or in seeds using a variety of substrates; type: biochemical, Arabidopsis thaliana; conditions: for S-oxygenation activity: desulfo and intact glucosinolates; for substrate specificity: methylthio glucosinolates in Arabidopsis
Excerpt: FIG. 11—Heterologous expression of At1g62560 in E. coli using 4MTB as substrate, with an empty vector as control.
FIG. 13—Heterologous expression of At1g62540 in E. coli using 4MTB as substrate, with an empty vector as control.
as §1
FIG. 17—Heterologous expression of At1g62570 in E. coli using desulfo-glucosinolates from glucosinolates from Arabidopsis Col-0 seeds as substrate mix, with an empty vector as control.
FIGS. 11-18 show the activity of At1g62560, At1g65860, At1g62540, At1g12140 and At1g62570 in E. coli or in seeds using a variety of substrates.

[3] = tested on: Arabidopsis thaliana Col-0; assay: 4MTB and 4MSB levels in At1g65860 and At1g62560 overexpression lines; type: in vivo; conditions: expressed constitutively
Method: FIG. 5—4-methylthiobutyl glucosinolate levels in rosette leaves from 24 day old wild type columbia and transgenic At1g65860 and At1g62560 overexpression lines. Quantities are given in nmol/mg fresh weight ±one standard deviation and are the mean of extractions from four individual plants. Two independent lines were analysed for each construct. The lines H and AT for 35S overexpression of At1g65860 and line 9 and 11 for 35S overexpression of At1g62560.
FIG. 12—4-6 fold increase in 4MSB levels in seeds in overexpressors of At1g62560 and At1g65860.
In another separate experiment a mix of heterozygous and homozygous 35S:At1g62560 and 35S:At1g65860 as well as Arabidopsis thaliana, ecotype Columbia, were used.
Three-four leaves (20-80 mg) were harvested from each plant and the material freeze-dried O/N. After adding one ball bearing to each tube, the tissue was homogenized by shaking at a frequency of 30 s^−1 for one min on a Retsch Mixer Mill 303 (Retsch, Haan, Germany). 250 μl of 85% methanol was added to each tube and the entire box vortexed for 30 s. For glucosinolate extraction from seeds (10-20 mg) 250 μl of 85% methanol was added before homogenization. The samples were mixed for two minutes by vortexing. […]

Q: With CSCCCCCCCCC(=NOS(=O)(=O)O)S[C@@H]1O[C@H](CO)[C@@H](O)[C@H](O)[C@H]1O [8MTO, 8-methylthiooctyl glucosinolate] as the molecule, how does the S-oxygenation activity [1] read?
A: The S-oxygenation activity was “high activity”.

B1: At1g65860: flavin-containing monooxygenase (FMO) from A. thaliana, SEQ ID NO 4; also its overexpression in planta (protein, listed as Arabidopsis thaliana)
chain: MAPTQNTICSKHVAVIGAGAAGLVTARELRREGHTVVVFDREKQVGGLWNYSSKADSDPLSLDTTRTIVHTSIYESLRTNLPRECMGFTDFPFVPRIHDISRDSRRYPSHREVLAYLQDFAREFKIEEMVRFETEVVCVEPVNGKWSVRSKNSVGFAAHEIFDAVVVCSGHFTEPNVAHIPGIKSWPGKQIHSHNYRVPGPFNNEVVVVIGNYASGADISRDIAKVAKEVHIASRASESDTYQKLPVPQNNLWVHSEIDFAHQDGSILFKNGKVVYADTIVHCTGYKYYFPFLETNGYININENRVEPLYKHVFLPALAPSLSFIGLPGMAIQFVMFEIQSKWVAAVLSGRVILPSQDKMMEDIIEWYATLDVLGIPKRHTHKLGKISCEYLNWIAEECHCSPVENWRIQEVERGFQRMVSHPEIYRDEWDDDDLMEEAYKDFARKKLISSHPSYFLES
Q: With B1 as the molecule, how does the S-oxygenation activity [2] read?
A: The S-oxygenation activity was “S-oxygenation activity”.

Q: What about the substrate specificity [2] of the same molecule?
A: Its substrate specificity is “broad specificity towards all methylthio (MT) glucosinolates”.

Q: And the 4-methylthiobutyl glucosinolate levels [3]?
A: Its 4-methylthiobutyl glucosinolate levels is “reduced”.

B2: At1g62560: flavin-containing monooxygenase (FMO) from A. thaliana, SEQ ID NO 2; also its overexpression in planta (protein, listed as Arabidopsis thaliana)
chain: MAPAQNQITSKHVAVIGAGPAGLITSRELRREGHSVVVFEREKQVGGLWVYTPKSDSDPLSLDPTRSKVHSSIYESLRTNVPRESMGVRDFPFLPRFDDESRDARRYPNHREVLAYIQDFAREFKIEEMIRFETEVVRVEPVDNGNWRVQSKNSGGFLEDEIYDAVVVCNGHYTEPNIAHIPGIKSWPGKQIHSHNYRVPDPFENEVVVVIGNFASGADISRDIAKVAKEVHIASRAREPHTYEKISVPQNNLWMHSEIDTTHEDGSIVFKNGKVIFADSIVYCTGYKYNFPFLETNGYLRIDEKRVEPLYKHVFPPALAPGLAFVGLPAMGIVFVMFEIQSKWVAAVLSGRVTLPSTDKMMEDINAWYASLDALGIPKRHTHTIGRIQSEYLNWVAKESGCELVERWRGQEVDGGYLRLVAHPETYRDEWDDDELIEEAYNDFSRKKLISVDPSYYLENGR
Q: Which S-oxygenation activity [2] does the source give for B2 here?
A: Its S-oxygenation activity is “S-oxygenation activity”.

Q: And the substrate specificity [2]?
A: The substrate specificity was “broad specificity towards all methylthio (MT) glucosinolates”.

Q: And the 4-methylthiobutyl glucosinolate levels [3]?
A: The 4-methylthiobutyl glucosinolate levels was “reduced”.
